Entries after “also recorded” stand apart in the source; their conditions may differ.
Legend:
Molt3 cells [1] = test: Cell metabolic assay (MTT); type: cell-based
Description: After taking the photographs in Example 3 (and in some instances no photographs were taken), cell metabolic activity was assessed by an MTT assay. A 37.5 μl portion of MTT dye (purchased from SIGMA of St. Louis, Mo.), i.e., 3-[4,5-dimethyl thiazole-2yl]-2, 5- diphenyl tetrazolium bromide; thiazolyl blue) was added to each well, and incubated with the cells at 37° C. for about six hours. After incubation, a 250 μl quantity of a MTT solubilization solution (of a type that may be purchased from either Fischer Scientific of St. Louis, Mo. or BCD Labs of Lawrence, Kans.) was added to each well, and incubated with the cells at room temperature overnight. In the morning, the spectrophotometric absorption of each plate was determined at 570 nm in a microplate ELISA reader manufactured by Cambridge Technologies of Water-town, Mass., in order to assess cell viability as an indicator of potential peptide toxicity.

ICAM-1 = target: T1, ICAM-1 (Homo sapiens, UniProt P05362); test: Conformation modulator assay: flow cytometry of FITC-labeled RB-1-88 binding to T-cells after pre-incubation with first peptide; type: cell-based; details: first peptide 4550 μM
T1 construct: host or cells: Molt3 human T-cell leukemia line
Description: The antibody binding assay of Example 2 was twice repeated at a peptide concentration of 4550 μM, each time substituting a 455 nmol quantity of synthetic peptide selected from the group consisting of ICAM-based peptide SC-3-111 (Sequence ID No. 10) and LFA-based peptide LJCRF-4 (Sequence ID No. 16) in respective assays. Following incubation for 30 minutes at 37° C. after introduction of the first peptides, both incubated culture were supplemented by an additional quantity of FITC-labeled RB-1-88 (Sequence ID No. 19) peptide in a quantity sufficient to provide a 1.90 μM concentration in the cell/PBS solution.
Following addition of the RB-1-88 (Sequence ID No. 19) peptide, the mixture was incubated for 30 minutes at 4° C., washed three times with 500 μl PBS/BSA, resuspended in 500 μl PBS/BSA and immediately subjected to a flow cytometer analysis as before. Table 3 presents the results of this analysis, which are also depicted in FIGS. 8 (SC-3-111) and 9 (LJCRF-4).

Molt3 cells [2] = test: Homotypic adhesion assay (MDHC-induced clumping of T-cells); type: cell-based, human; set-up: key to Homotypic Adhesion Amount: Any sample having a score of "+++" or "++++" is considered to have a significant ability to modulate T-cell binding interaction; Any sample having a score of "+++" or "++++" is considered to have a significant ability to modulate T-cell binding interaction; details: 10 μM MDHC
Description: As before, the T-cells were Molt3 cells prepared in RPMI 1640 growth medium according to Example 2. An approximate 7 ml aliquot of the growth medium was centrifuged (Jouan Model GT422 at 1400 rpm for 6.5 minutes), and the supernatant fluid was decanted. The pellet was resuspended in the supernatant fluid at titer of about 1×10^6 cells/ml, with the excess supernatant fluid being retained for future resuspension of the peptides.
A 228 nmol quantity of the LJCRF-1 (Sequence ID No. 6) peptide described in Table 1 was diluted with the supernatant fluid to a 500 μl final volume, and filtered in microcentrifuge filter tubes (0.22 micron filter; 3500 rpm for 6 minutes). Serial dilution of the filtered peptide with supernatant fluid was conducted to yield five 125 μl peptide solutions to give respective concentrations of about 115 μM, 230 μM, 460 μM, 910 μM, and 1.82 mM. At each concentration, a 125 μl portion of the cell suspension was pipetted into each 125 μl portion of the peptide solutions to yield combined samples having a 250 μl volume. The 250 μl samples were seeded into individual wells in a 48-well tissue culture grade plate (from Costar of Cambridge, Md.) and incubated at 37° C. for 30 minutes. Each sample received 5 μl of 2,5-methyl dihydroxy cinnamate ("MDHC") for a 10 μM final concentration, and was subsequently incubated for about 10 hours at 37° C. MDHC induces intercellular clumping of human T-cells (Tibbetts, Butler, and Benedict, submitted) by activating the LFA/ICAM binding interaction between respective cells.
Pictures were taken of five random fields per sample using an Olympus photomicroscope having a 0.8 mm field at 400×magnification, and a 3.2 mm field of view at 100×magnification. The amount of clumping observed was quantified by determining the mean number of clumps per field ± a standard error.
FIGS. 5, 6, and 7 replicate photographs taken from exemplary peptide assays. FIG. 5 is a photograph of the control sample having no peptides and no MDHC added, from which essentially no clumping of cells is observed. […] Any sample having a score of "+++" or "++++" is considered to have a significant ability to modulate T-cell binding interaction. This is similar to results obtained by incubating similarly treated cells with antibody against either LFA or ICAM.
The homotypic adhesion assay assesses the actual ability of a candidate peptide to modulate the ability of T-cells to adhere with one another.

ICAM-1 (CD54) = target: T2, ICAM-1 (CD54) (Homo sapiens, UniProt P05362); test: Antibody binding assay (FACS): anti-ICAM-1 mAb (mouse IgG anti-human CD54) binding to Molt3 T-cells after peptide incubation; type: cell-based; details: for Fluorescence, % change from control of the medium fluorescence intensity: mAb CD54
T2 construct: host or cells: Molt3 human T-cell leukemia line

LFA-1 (CD11a) = target: T3, LFA-1 (CD11a) (Homo sapiens, UniProt P20701); test: Antibody binding assay (FACS): anti-LFA-1 mAb (mouse IgG anti-human CD11a) binding to Molt3 T-cells after peptide incubation; type: cell-based; details: for Fluorescence, % change from control of the medium fluorescence intensity: mAb CD11a, average ± standard error of runs
T3 construct: host or cells: Molt3 human T-cell leukemia line
Description: A 1 ml quantity of the Molt3 inoculum was warmed to 37° C. and transferred by pipette into about 25 ml of a growth culture medium including RPMI 1640 lymphocyte growth medium (Fisher Scientific of St. Louis, Miss.) mixed with 10% by volume fetal calf serum, 100 units/ml penicillin, 100 μg/ml streptomycin and 2 mM glutamine. The inoculated culture was incubated for three to four days at 37° C. under a normal atmosphere having about 5% CO2 added thereto. This culture was capable of being maintained indefinitely by siphoning away the top (non-cell containing) layer and adding 50 ml (or more) of growth culture medium at intervals of three to four days.
An aqueous buffer solution including Dulbecco's phosphate buffered saline and bovine serum albumin ("-PBS/BSA solution") was prepared for use, and included a mixture of 200 mg KH2 PO4, 1.15 g Na2 HPO4, 100 mg CaCl2, 200 mg KCl, 100 mg MgCl2.6H2 O, 8 g NaCl, with distilled water added to a final 1 liter volume at room temperature, thus, forming a "PBS" solution of pH 7.4 to which was added 0.5% by weight bovine serum albumin.
An aliquot of about 7 ml was removed from the incubated culture medium and subjected to washing with the PBS/BSA solution. The washing procedure was initiated by placing the aliquot in a centrifuge (Model GT422 from Jouan, distributed Piruscio & Assoc. of Manchester, Miss.) at 1400 rpm for 6.5 minutes to separate the cells from the growth medium. The supernatant fluid was decanted, a 5 ml portion of PBS/BSA solution was transferred by pipette into the pellet, and the mixture was again centrifuged as before. The resulting supernatant fluid was decanted and the cells from the pellet were resuspended in PBS/BSA solution at a titer of about 1×10^6 cells/ml. A 500 μl portion of the solution containing the resuspended cells was placed in a microcentrifuge (Marathon 13K/M from Fisher Scientific of St. Louis, Miss.) at 3500 rpm for six minutes, to provide a washed pellet.
[…] The cells were incubated with the peptide cocktail at 37° C. for 45 minutes.
After incubation with the peptide cocktail, several antibodies were successively mixed into the incubated solution. A 75 μl portion of anti-IgM solution (a mixture of 10 μl of goat anti-human IgM stock purchased from Jackson Immuno Research of Westgrove, Pa.; and 65 μl of PBS/BSA solution) was added to the peptide cocktail for blocking of nonspecific binding of the secondary antibody. The resulting mixture was incubated for 10 minutes on ice. About 0.1 μg of a primary antibody including mouse IgG anti-human CD11a (purified according to conventional protocols at the University of Kansas Department of Pharmacology and Toxicology from an American Type Culture hybridoma cell line having Catalogue Number HB-202) was next stirred into the mixture, which was then incubated for 30 minutes at room temperature. The incubated mixture was placed in a microcentrifuge at 3500 rpm for six minutes to remove the cells from the mixture, and the cell pellet was washed two times by adding 500 μl aliquots of PBS/BSA solution and microfuging to remove non-bound antibodies from the cells as before. The resulting washed pellet was resuspended in 100 μl of a secondary antibody cocktail including 5 μl of fluorescein isothiocyanate ("FITC") labeled goat anti-mouse IgG (from CALTAG of South San Francisco, Calif.) and 95 μl of PBS/BSA solution. The resulting solution was incubated for 30 minutes at room temperature in the dark.
The incubated solution including the secondary antibody cocktail was microfuged at 3500 rpm for six minutes to remove the cells from the solution, and the cell pellet was washed two times with 500 μl portions of PBS/BSA solution, as before, to remove unbound antibodies. […]

Molt3 cells [3] = test: Homotypic adhesion assay (MDHC-induced clumping of T-cells); type: cell-based, human; details: 10 μM MDHC, listed as LJCRF-2

T3 sequence (P20701 26-1170): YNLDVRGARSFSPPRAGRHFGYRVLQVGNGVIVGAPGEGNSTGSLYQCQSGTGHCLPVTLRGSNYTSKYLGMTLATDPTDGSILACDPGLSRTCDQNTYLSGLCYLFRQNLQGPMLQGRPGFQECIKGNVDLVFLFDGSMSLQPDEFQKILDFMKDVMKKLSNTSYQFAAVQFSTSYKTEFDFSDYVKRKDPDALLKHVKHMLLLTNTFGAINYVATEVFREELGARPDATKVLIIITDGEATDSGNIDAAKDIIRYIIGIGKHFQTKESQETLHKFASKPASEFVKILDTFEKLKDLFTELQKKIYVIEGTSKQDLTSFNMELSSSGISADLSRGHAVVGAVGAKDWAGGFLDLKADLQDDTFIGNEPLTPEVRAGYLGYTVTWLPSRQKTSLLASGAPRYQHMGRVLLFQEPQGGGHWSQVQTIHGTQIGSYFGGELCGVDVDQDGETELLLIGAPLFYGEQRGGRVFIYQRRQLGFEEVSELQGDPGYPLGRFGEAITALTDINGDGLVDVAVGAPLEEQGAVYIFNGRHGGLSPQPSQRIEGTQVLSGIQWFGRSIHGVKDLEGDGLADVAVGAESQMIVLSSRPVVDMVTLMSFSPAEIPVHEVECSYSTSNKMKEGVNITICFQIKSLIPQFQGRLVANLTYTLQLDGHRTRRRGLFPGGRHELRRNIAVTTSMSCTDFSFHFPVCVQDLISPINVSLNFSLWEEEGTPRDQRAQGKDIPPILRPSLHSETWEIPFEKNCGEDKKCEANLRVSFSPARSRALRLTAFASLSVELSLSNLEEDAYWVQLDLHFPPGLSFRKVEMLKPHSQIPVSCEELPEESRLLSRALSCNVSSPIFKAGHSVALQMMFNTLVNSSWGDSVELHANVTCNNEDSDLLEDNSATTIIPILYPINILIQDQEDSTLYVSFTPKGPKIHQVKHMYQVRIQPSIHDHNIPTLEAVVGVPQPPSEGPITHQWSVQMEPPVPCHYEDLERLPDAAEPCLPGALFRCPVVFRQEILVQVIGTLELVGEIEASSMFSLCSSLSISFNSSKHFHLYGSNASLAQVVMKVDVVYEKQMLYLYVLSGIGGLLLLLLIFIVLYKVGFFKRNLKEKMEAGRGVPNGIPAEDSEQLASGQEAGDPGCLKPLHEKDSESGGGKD
T3 sequence (P05107 23-769 partner): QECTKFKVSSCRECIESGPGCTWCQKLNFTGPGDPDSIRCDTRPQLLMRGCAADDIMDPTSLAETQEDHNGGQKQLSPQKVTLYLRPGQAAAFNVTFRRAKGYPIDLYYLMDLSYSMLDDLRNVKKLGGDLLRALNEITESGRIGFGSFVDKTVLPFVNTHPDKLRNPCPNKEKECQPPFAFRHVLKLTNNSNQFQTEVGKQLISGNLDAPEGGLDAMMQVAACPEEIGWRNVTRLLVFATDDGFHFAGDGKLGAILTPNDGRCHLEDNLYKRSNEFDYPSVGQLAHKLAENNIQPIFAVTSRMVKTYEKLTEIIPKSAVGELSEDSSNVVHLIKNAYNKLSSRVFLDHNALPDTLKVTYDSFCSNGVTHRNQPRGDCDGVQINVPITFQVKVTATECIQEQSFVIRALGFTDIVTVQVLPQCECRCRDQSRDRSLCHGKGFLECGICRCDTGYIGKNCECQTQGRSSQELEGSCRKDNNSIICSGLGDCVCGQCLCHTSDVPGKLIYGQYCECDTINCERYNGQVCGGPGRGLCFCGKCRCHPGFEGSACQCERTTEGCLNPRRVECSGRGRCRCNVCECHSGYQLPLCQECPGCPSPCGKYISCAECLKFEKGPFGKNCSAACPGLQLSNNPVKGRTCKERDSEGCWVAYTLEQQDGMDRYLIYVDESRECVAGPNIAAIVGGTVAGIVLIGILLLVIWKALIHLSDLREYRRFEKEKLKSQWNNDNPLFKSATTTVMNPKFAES
T2 sequence (P05362 28-532): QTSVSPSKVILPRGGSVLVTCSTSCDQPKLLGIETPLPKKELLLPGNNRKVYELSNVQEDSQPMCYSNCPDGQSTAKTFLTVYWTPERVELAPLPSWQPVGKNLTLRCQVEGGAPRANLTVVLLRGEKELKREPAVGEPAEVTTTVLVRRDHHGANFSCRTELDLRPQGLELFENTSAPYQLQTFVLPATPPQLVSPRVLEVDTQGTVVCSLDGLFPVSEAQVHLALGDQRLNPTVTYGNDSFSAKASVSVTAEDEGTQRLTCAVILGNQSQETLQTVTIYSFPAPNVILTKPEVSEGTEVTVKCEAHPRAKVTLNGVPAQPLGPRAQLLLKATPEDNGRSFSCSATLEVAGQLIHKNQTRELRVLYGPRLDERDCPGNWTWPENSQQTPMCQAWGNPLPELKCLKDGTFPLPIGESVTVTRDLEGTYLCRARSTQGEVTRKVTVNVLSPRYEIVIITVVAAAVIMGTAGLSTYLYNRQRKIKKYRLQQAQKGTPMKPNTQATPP
T1 sequence (P05362 28-532): as above

**Q.** Which “MTT % Viability” value (Molt3 cells [1]; peptide 115 μM) does the source give for “LJCRF-4: LFA-1β based modulator peptide, Sequence ID No. 16 (DLSYSLDDLRNVKKLGGDLLRALNE)” here?
**A.** 99%

**Q.** And the “MTT % Viability” value (Molt3 cells [1]; peptide 230 μM)?
**A.** 101%

**Q.** And the “MTT % Viability” value (Molt3 cells [1]; peptide 460 μM)?
**A.** 94%

**Q.** And the “MTT % Viability” value (Molt3 cells [1]; peptide 910 μM)?
**A.** 60%

**Q.** And the “MTT % Viability” value (Molt3 cells [1]; peptide 1820 μM)?
**A.** 11%

**Q.** What about the “FACS Analysis (RB-1-88 binding)” value (ICAM-1; then FITC-labeled RB-1-88 1.90 μM, shift vs control) of the same substance?
**A.** +145%

**Q.** And the “effect on binding of labeled peptide (RB-1-88 / LJCRF-6) to T-cell ICAM-1” value (ICAM-1; FIGS. 8, 9)?
**A.** synergistically increases binding; also recorded: significant T-cell binding enhancement; also recorded: significantly enhanced

**Q.** What about the “Homotypic Adhesion Amount” value (Molt3 cells [2]; peptide 115 μM) of the same substance?
**A.** +++

**Q.** What about the “Homotypic Adhesion Effect” value (Molt3 cells [2]; peptide 115 μM) of the same substance?
**A.** Enhance

**Q.** And the “Homotypic Adhesion Amount” value (Molt3 cells [2]; peptide 230 μM)?
**A.** +++

**Q.** And the “Homotypic Adhesion Effect” value (Molt3 cells [2]; peptide 230 μM)?
**A.** Enhance; also recorded: binding enhancers

**Q.** What about the “Homotypic Adhesion Amount” value (Molt3 cells [2]; peptide 460 μM) of the same substance?
**A.** ++++

**Q.** What about the “Homotypic Adhesion Effect” value (Molt3 cells [2]; peptide 460 μM) of the same substance?
**A.** Block; also recorded: blockers of intercellular adhesion

**Q.** And the “Homotypic Adhesion Amount” value (Molt3 cells [2]; peptide 910 μM)?
**A.** ++++

**Q.** And the “Homotypic Adhesion Effect” value (Molt3 cells [2]; peptide 910 μM)?
**A.** Block

**Q.** What about the “Homotypic Adhesion Amount” value (Molt3 cells [2]; peptide 1820 μM) of the same substance?
**A.** +++

**Q.** What about the “Homotypic Adhesion Effect” value (Molt3 cells [2]; peptide 1820 μM) of the same substance?
**A.** Block

**Q.** And the “effect on anti-ICAM-1 mAb binding” value (ICAM-1 (CD54); FIG. 4, peptide 4550 μM)?
**A.** promote the specific antibody binding

**Q.** What about the “Fluorescence, % change from control of the medium fluorescence intensity” value (ICAM-1 (CD54); peptide 2275 μM, average ± standard error of runs) of the same substance?
**A.** +3 ± 1%

**Q.** What about the “Fluorescence, % change from control of the medium fluorescence intensity” value (ICAM-1 (CD54); peptide 6825 μM, 1 run) of the same substance?
**A.** +521%

**Q.** What about the “median peak curve shift (enhancement)” value (ICAM-1 (CD54); single run of FIG. 4, peptide 4550 μM, anti-ICAM antibody) of the same substance?
**A.** +447%

**Q.** Which results are given for “SC-3-152: ICAM-derived short-chain peptide, Sequence ID No. 11; modulator peptide (DQPKLLGIETPLPKKELLLPGNNRK)”?
**A.** MTT % Viability (Molt3 cells [1]; concentration not given): 38%; MTT % Viability (Molt3 cells [1]; peptide 230 μM): 38%; MTT % Viability (Molt3 cells [1]; peptide 460 μM): 38%; MTT % Viability (Molt3 cells [1]; peptide 910 μM): 38%; MTT % Viability (Molt3 cells [1]; peptide 1820 μM): 43%; Fluorescence, % change from control of the medium fluorescence intensity (LFA-1 (CD11a); peptide 2275 μM): +48 ± 8%; Fluorescence, % change from control of the medium fluorescence intensity (LFA-1 (CD11a); peptide 4550 μM, negative = blocking): -43 ± 7%; effect on antibody binding (LFA-1 (CD11a); peptide 2275 μM): enhance such binding; effect on antibody binding (LFA-1 (CD11a); peptide 4550 μM): block antibody binding; Homotypic Adhesion Amount (Molt3 cells [2]; peptide 230 μM): +++; Homotypic Adhesion Effect (Molt3 cells [2]; peptide 230 μM): Enhance; Homotypic Adhesion Effect (Molt3 cells [2]; peptide 460 μM): Enhance; Homotypic Adhesion Amount (Molt3 cells [2]; peptide 910 μM): +++; Homotypic Adhesion Effect (Molt3 cells [2]; peptide 910 μM): Block; Homotypic Adhesion Amount (Molt3 cells [2]; peptide 1820 μM): ++++; Homotypic Adhesion Effect (Molt3 cells [2]; peptide 1820 μM): Block; Homotypic Adhesion Effect (Molt3 cells [3]; peptide 460 μM): binding enhancers; Homotypic Adhesion Effect (Molt3 cells [3]; peptide 910 μM): blockers of intercellular adhesion

Source: US5863889A, “ICAM-1/LFA-1 short-chain peptides and method of using same” (The University of Kansas, priority 1996, dated 1999)
